# According to PMC4049228 (Science (New York, N.Y.), 2014):
# T1: Ricinus communis ATXR5 (RcATXR5 a.a. 158–374; nSET and SET domain) (Ricinus communis, UniProt B9RU15 158-374)
# T1 sequence: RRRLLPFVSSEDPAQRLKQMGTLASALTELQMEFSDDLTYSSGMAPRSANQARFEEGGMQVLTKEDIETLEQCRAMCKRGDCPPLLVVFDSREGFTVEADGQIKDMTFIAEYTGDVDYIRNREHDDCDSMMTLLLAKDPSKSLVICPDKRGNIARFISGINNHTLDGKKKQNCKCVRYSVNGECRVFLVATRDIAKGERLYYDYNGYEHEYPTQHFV
# B1: histone H3.1 peptide (a.a. 18–36) (peptide)
# peptide: KQLATKAARKSAPATGGVK
# Molecular target: T1, Ricinus communis ATXR5 (RcATXR5 a.a. …)
# Assay: crystal structure
binder,measurement,value
B1,binding result,binds
